The target in this data set is CasX2 (StX2, wild-type reference CasX) (Planctomycetes). Put plainly: cleavage_in_vitro; kcleave; TTC PAM. As to conditions: tags: N-terminal SV40 NLS, C-terminal NLS, TEV site and twin Strep tag; label: fluorescent. On the procedure: In vitro cleavage assays were performed essentially as described in Example 19, using CasX 2 (SED ID NO:2), CasX 119, and CasX 438 complexed with single guide 174 with spacer 7.37 targeted against B2M. Fluorescently labeled dsDNA targets that would be complementary with a 7.37 spacer and either a ITC, CTC, CTC, or ATC PAM were used (The DNA sequences used to generate each dsDNA substrate are shown in Table 29. The PAM sequences for each are bolded. TS—target strand. NTS—Non-target strand). Target DNA was incubated with a 20-fold excess of the indicated RNP and the amount of cleaved target was determined at the indicated. time points. The monophasic fit of the combined replicates is shown. During the assay, samples were taken at 0.25, 0.5, 1, 2, 5, 10, 30, and 60 minutes. Gels were imaged with an Amersham Typhoon and quantified using the IQTL 8,2 software. Apparent first-order rate constants for non-target strand cleavage (kcleave) were determined for each Casx:sgRNA complex on each target. Rate constants for targets with non-TTC PAM were compared to the TIC PAM target to determine whether the relative preference for each PAM was altered for a given CasX variant. The results are shown in FIG. 73 (the monophasic fit of the combined replicates is shown) and Table 30. […]

The values that follow come from patent US20220220508, “ENGINEERED CASX SYSTEMS” (Scribe Therapeutics Inc., published 2022).

B1: sgRNA 174.7.37 ; 7.37 TTC PAM target (ssRNA ; dsDNA)
RNA: ACUGGCGCUUUUAUCUGAUUACUUUGAGAGCCAUCACCAGCGACUAUGUCGUAGUGGGUAAAGCUCCCUCUUCGGAGGGAGCAUCAAAGGGCCGAGAUGUCUCGCUCCG
DNA 1: TGAAGCTGACAGCATTCGGGCCGAGATGTCTCGCTCCGTGGCCTTAGCTGTGCTCGCGCT
DNA 2: AGCGCGAGCACAGCTAAGGCCACGGAGCGAGACATCTCGGCCCGAATGCTGTCAGCTTCA
Regarding B1, the activity was found to be 0.267 min⁻¹.
